# Data taken from paper PMC3542637 (Biochemistry, 2012).
# B1: L-fucose dehydrogenase BmulJ_04919 from Burkholderia multivorans ATCC 17616 (enzyme, UniProt A0A0H3KNE7 1-258, looked up)
# chain: MDLNLQDKVVIVTGGASGIGGAISMRLAEERAIPVVFARHAPDGAFLDALAQRQPRATYLPVELQDDAQCRDAVAQTIATFGRLDGLVNNAGVNDGIGLDAGRDAFVASLERNLIHYYAMAHYCVPHLKATRGAIVNISSKTAVTGQGNTSGYCASKGAQLALTREWAVALREHGVRVNAVIPAEVMTPLYRNWIATFEDPEAKLAEIAAKVPLGRRFTTPDEIADTAVFLLSPRASHTTGEWLFVDGGYTHLDRALV
# Biological target: the molecule itself
# Test: crystal structure
protein,measurement,value
B1,stoichiometry N,4
